Experimental findings from patent US20250277059A1, “ANTIBODY USED TO TREAT CORONAVIRUS INFECTION” (priority 2022, published 2025) are described below.

Where two headings read alike, the source gives them in different places.

For assay [1], the target named is Human TMPRSS2 expressed on cells (human) (UniProt O15393). Nature of the assay: flow cytometry, COS7 transfectant; Q1 23.3. A general note: Flow cytometry measures light scatter and fluorescence of single cells or particles in a stream.
Assay [2] has the same target. Briefly: flow cytometry, Daudi transfectant.
Assay [3] has as its target T1, Mouse TMPRSS2 expressed on cells (mouse, UniProt Q9JIQ8 1-490). Briefly: flow cytometry, Daudi transfectant.
Assay [4] addresses Cynomolgus monkey TMPRSS2 expressed on cells (cynomolgus monkey). Briefly: flow cytometry, Daudi transfectant.
Assay [5] addresses T2, Human TMPRSS2 recombinant protein, extracellular region (N-terminal His tag, C-terminal Strep-tag II) (human, UniProt O15393 106-492).
T2 construct: also called Human TMPRSS2 recombinant proteins; extracellular region of human TMPRSS2
Nature of the assay: SPR (BIAcore); rounded repeat of Table 1.

Assay [6] has as its target T2, Human TMPRSS2 recombinant protein, …. Briefly: SPR (BIAcore), captured mAb, soluble human TMPRSS2 extracellular region.
The target of assay [7] is T3, Human TMPRSS2 expressed on cells (human, UniProt O15393 1-492). Nature of the assay: cell-based or functional assay.
T3 sequence (O15393 whole entry): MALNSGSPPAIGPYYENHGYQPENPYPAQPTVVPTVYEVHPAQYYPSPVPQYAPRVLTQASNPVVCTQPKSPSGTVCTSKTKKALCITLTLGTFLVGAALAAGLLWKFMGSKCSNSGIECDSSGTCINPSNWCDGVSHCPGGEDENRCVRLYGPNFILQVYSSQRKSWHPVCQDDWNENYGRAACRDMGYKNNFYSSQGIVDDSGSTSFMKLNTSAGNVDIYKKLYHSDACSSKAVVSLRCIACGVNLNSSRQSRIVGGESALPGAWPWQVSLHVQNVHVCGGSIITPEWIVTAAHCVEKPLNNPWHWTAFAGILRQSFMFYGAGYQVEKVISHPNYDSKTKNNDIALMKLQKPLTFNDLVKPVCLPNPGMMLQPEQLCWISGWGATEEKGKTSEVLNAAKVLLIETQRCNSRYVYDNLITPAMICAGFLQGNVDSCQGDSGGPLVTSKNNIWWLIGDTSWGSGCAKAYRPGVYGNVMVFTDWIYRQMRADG
The target of assay [8] is T3, Human TMPRSS2 expressed on cells. Briefly: cell-based or functional assay. This is another data set of the same source.
Assay [9] has as its target T1, Mouse TMPRSS2 expressed on cells. Briefly: flow cytometry, Daudi transfectant. The source holds these as a separate data set.
The target of assay [10] is T3, Human TMPRSS2 expressed on cells. Nature of the assay: flow cytometry, Daudi transfectant.
The next assay has as its target TMPRSS-11F (human, UniProt Q6ZWK6). Briefly: ELISA, Strep-tagged protein on streptavidin plate.
A further assay addresses T4, TMPRSS-11E (human, UniProt Q9UL52).
T4 sequence (single chain, looked up): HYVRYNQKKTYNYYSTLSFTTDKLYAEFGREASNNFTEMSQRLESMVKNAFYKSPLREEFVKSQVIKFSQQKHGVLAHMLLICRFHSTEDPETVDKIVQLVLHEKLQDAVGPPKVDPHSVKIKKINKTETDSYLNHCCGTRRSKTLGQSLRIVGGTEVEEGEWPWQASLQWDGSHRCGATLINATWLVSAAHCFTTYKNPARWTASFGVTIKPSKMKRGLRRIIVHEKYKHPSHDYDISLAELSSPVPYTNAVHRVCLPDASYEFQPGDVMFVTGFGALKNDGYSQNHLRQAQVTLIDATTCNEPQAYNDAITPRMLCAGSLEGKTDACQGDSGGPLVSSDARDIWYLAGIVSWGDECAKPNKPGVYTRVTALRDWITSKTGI
Briefly: ELISA, Strep-tagged protein on streptavidin plate.

Another assay addresses T5, TMPRSS-11D (human, UniProt O60235).
T5 sequence (single chain, looked up): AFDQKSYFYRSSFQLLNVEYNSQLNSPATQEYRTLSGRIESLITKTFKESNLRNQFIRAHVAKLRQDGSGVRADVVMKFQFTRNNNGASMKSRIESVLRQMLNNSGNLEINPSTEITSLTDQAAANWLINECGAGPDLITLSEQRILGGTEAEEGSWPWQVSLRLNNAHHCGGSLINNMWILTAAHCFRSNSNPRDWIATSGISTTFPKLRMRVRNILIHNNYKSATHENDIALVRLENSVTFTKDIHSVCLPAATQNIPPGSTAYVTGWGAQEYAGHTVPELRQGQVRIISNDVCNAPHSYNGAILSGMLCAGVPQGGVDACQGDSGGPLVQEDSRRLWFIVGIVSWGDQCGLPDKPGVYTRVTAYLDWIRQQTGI
Nature of the assay: ELISA, Strep-tagged protein on streptavidin plate. In general terms: ELISA stands for enzyme-linked immunosorbent assay.

The next assay has as its target T6, TMPRSS-13 (human, UniProt Q9BYE2).
T6 sequence (single chain, looked up): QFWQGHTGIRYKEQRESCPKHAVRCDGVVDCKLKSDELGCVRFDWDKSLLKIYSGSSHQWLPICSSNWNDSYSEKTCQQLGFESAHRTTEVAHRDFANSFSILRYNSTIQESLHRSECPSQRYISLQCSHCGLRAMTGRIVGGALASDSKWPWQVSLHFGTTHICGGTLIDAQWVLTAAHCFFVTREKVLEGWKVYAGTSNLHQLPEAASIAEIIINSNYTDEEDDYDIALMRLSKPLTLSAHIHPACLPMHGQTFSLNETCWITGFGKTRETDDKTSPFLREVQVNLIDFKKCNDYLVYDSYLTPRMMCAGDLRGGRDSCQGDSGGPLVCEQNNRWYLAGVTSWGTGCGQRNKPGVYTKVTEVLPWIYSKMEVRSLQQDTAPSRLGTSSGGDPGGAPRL
Briefly: ELISA, Strep-tagged protein on streptavidin plate.

Assay [11] has as its target T7, amino acid sequence set forth in SEQ ID NO: 85 ([…]) (Homo sapiens, UniProt O15393).
T7 construct: purchased JPT Peptide Technologies GmbH; host or cells: synthetic peptides on glass slide
Briefly: Epitope mapping by peptide array. The conditions noted are these: 20-meric peptide array, FIGS. 5A to 5B. Format: binding.

Assay [12] has as its target T8, human TMPRSS2 (Homo sapiens, UniProt O15393). Briefly: Competitive inhibition between anti-TMPRSS2 mAbs (flow cytometry). In kind it is binding. The conditions noted are these: FIG. 3B.
Target sequence in this assay (O15393 whole entry): as the sequence (O15393 whole entry) above
Assay [13] has as its system human TMPRSS family proteins. Briefly: Binding properties to TMPRSS family. The conditions noted are these: FIG. 9. As to the method: The reactivity of anti-TMPRSS2 mAbs to extracellular regions of human TMPRSS family proteins was analyzed by ELISA method. To a streptavidin-coated 96-well plate (Thermo Scientific, 436014), 100 μl each of 78 nM Strep-tagged recombinant proteins in PBS was captured at room temperature for 2 hours and washed 5 times with PBST (0.1% Tween 20/PBS). Anti-TMPRSS2 mAbs (10 μg/mL), mouse IgG (Equitech-Bio, SLM66) or Ni-NTA-HRP (KPL, 24-01-01) as controls, diluted to 0.2% BSA in PBST was added thereto to incubate for 2 hours. After washing with PBST, the bound IgG was detected with 100 μl horseradish peroxidase Goat anti-mouse IgG antibody (BioLegend, Inc.) diluted to 1:15,000 in PBST at room temperature for 1 hour and washed with PBST. 100 μl TMB substrate solution (SeraCare Life Sciences, Inc. 5120-0077) was added to the well and allowed to color at room temperature for a few minutes. The reaction was stopped with 100 μl 2M H2SO4. The optical density (OD) was read at 450 nm while referring to OD with a microplate reader (ARVO ×3, PerkinElmer, Inc.).

In assay [14] the target is T8, human TMPRSS2. Briefly: BIACore binding assay of anti-TMPRSS2 antibodies. The conditions noted are these: Table 1, mouse mAbs, 25° C. Background: Surface plasmon resonance follows binding to a sensor surface in real time, without labels.
Target sequence in this assay (O15393 106-492 limits assumed): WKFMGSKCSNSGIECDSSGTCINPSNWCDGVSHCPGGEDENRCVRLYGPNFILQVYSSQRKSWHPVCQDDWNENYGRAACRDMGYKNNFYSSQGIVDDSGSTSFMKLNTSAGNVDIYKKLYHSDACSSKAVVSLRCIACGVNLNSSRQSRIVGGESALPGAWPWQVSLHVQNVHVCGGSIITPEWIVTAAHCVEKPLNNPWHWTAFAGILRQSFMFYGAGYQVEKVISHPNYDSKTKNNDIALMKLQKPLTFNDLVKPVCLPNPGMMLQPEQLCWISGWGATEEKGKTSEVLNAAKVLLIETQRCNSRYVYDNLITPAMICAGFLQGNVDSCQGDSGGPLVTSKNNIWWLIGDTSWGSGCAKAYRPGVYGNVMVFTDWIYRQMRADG
The next assay has as its target T9, mouse TMPRSS2 (Mus musculus, UniProt Q9JIQ8).
T9 construct: expressed in transfected cells; host or cells: Daudi
Nature of the assay: FACS cross-reactivity to mouse TMPRSS2. Conditions: FIGS. 10C and 10D. In kind it is binding.

Assay [15] has as its system TMPRSS2 of non-human animal species. In kind it is binding. The conditions noted are these: Table 3; species whose TMPRSS2 is bound.
The target of assay [16] is T1, Mouse TMPRSS2 expressed on cells. Nature of the assay: flow cytometry, Daudi transfectant. This is another data set of the same source.

T2 sequence (O15393 other isoform, or with tags, fused parts or gaps limits assumed): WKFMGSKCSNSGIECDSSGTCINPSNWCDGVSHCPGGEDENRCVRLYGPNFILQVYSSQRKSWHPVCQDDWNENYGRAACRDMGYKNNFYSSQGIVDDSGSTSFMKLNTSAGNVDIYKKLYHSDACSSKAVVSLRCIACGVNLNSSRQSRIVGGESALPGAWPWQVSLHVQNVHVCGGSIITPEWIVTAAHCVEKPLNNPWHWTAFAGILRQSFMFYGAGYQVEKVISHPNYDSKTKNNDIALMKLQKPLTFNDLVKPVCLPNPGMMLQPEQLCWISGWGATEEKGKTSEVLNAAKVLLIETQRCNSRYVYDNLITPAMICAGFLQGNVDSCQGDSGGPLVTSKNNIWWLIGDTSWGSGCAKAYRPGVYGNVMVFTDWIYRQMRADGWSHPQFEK
T1 sequence (Q9JIQ8 whole entry): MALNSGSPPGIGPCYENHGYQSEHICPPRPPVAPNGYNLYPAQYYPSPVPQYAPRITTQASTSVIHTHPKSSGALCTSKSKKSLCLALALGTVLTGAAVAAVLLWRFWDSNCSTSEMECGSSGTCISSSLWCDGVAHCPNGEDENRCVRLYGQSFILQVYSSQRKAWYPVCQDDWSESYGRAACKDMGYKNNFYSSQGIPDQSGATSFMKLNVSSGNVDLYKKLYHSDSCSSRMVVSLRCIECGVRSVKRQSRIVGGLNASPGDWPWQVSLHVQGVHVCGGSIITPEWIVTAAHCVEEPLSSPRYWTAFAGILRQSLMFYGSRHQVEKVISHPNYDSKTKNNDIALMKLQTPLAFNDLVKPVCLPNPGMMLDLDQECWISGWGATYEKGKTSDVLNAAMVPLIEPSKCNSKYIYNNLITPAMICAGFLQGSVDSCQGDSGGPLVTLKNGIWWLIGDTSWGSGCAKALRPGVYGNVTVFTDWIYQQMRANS
Chain of Human TMPRSS2 expressed on cells (human) (O15393 whole entry): as the sequence (O15393 whole entry) above
T9 sequence (Q9JIQ8 whole entry): as the sequence (Q9JIQ8 whole entry) above
Chain of TMPRSS-11F (Q6ZWK6 54-438 limits assumed): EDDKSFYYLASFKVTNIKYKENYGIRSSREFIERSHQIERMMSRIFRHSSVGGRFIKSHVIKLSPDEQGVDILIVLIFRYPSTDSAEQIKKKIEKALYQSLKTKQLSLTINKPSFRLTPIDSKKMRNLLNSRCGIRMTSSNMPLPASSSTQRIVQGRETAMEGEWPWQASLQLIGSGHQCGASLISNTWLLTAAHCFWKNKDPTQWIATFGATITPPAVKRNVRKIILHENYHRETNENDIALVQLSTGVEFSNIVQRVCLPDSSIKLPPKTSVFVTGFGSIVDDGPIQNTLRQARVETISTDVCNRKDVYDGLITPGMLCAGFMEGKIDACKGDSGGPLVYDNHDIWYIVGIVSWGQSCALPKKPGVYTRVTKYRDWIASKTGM

In the case of mIgG (antibody), the Q2 (percent of cells GFP+ and stained) amounted to 0.015 in assay [1], 0.12 in assay [2], 0.011 in assay [3] and 1.51 in assay [4].

B1: 2020_12 antibody (antibody, V domains shown)
VH: QVQLQQPGAELAKPGASVKLSCKASGYTFTSYWMHWVKQRPGQGLEWIGLIPPNSGSSNYNEKFKSKATLTVDKSSRTAYMQLSSLTSEDSAVYYCARWDYGSSYGYFDVWGTGTTVTVSS
VL: DIVLTQSPASLAVSLGQRATISCRASESVSTSGYSYMHWYQQKPGQPPKLLIYLASNLESGVPVRFSGSGSGTDFTLNIHPVEEEDAATYYCQHSRELPPTFGAGTKLELK
B1: the Kd (in general, the free concentration of one partner at which half of the binding sites on the other are occupied at equilibrium, for simple one-to-one binding) in assay [5] was found to be 2.7 nM; in assay [6] it was 2.69 nM. Moreover, the Q2 (percent of cells GFP+ and stained) in assay [4] was 0.88; in assay [9], 48.5; in assay [10], 99.9. Also, in assay [6], the koff (usually a measure of how fast the partners let go of each other) was 0.00176 s⁻¹. The kon (commonly a measure of how fast the partners come together) in assay [6] is 654000 M⁻¹ s⁻¹. Moreover, the “Activity: Calu-3 Inhibiton” value in assay [7] is 66. Further, the “IC90, First run; live SARS-CoV-2 infection of Calu-3 cells” value in assay [8] stood at 0.23 µg/mL. The “IC90, Second run; live SARS-CoV-2 infection of Calu-3 cells” value in [8] was found to be 0.13 µg/mL. The binding result with TMPRSS-11F, with TMPRSS-11E, with TMPRSS-11D and with TMPRSS-13 was “no binding (tested: 10 µg/mL)” in each case.

B2: 2020_12: mouse anti-human TMPRSS2 monoclonal antibody, IgG2c κ; VH SEQ ID NO: 25, VL SEQ ID NO: 26 (antibody, V domains shown)
VH: QVQLQQPGAELAKPGASVKLSCKASGYTFTSYWMHWVKQRPGQGLEWIGLIPPNSGSSNYNEKFKSKATLTVDKSSRTAYMQLSSLTSEDSAVYYCARWDYGSSYGYFDVWGTGTTVTVSS
VL: DIVLTQSPASLAVSLGQRATISCRASESVSTSGYSYMHWYQQKPGQPPKLLIYLASNLESGVPVRFSGSGSGTDFTLNIHPVEEEDAATYYCQHSRELPPTFGAGTKLELK
modifications: mouse IgG2c kappa constant regions; 2020_12 VH; 2020_12 VL
For the molecule B2, the “binding to peptide of SEQ ID NO: 85” value in assay [11] is recorded as “particularly bound”. In addition, the “competition with 2228_15 antibody for binding to human TMPRSS2” value with human TMPRSS2 [12] is “competed”. Besides, in [13], the “binding properties to the TMPRSS family” value is reported as “bound specifically only to TMPRSS2”. In the assay with human TMPRSS2 [14], the “ka” value was 654000 M⁻¹ s⁻¹ and the “kd” value came out at 0.001759 s⁻¹. Besides, in the assay with mouse TMPRSS2, the “cross-reactivity to mouse TMPRSS2” value is reported as “exhibited the cross-reactivity”. Moreover, the Cross-reactivity entry in assay [15] was “Mouse”.

B3: 1864_10: mouse anti-human TMPRSS2 monoclonal antibody, IgG2b κ; VH SEQ ID NO: 17, VL SEQ ID NO: 18 (antibody, V domains shown)
VH: QVQLQQSGPALVKPGASLKISCEASGYTFTYYSINWVKQRPGQGLEWIGWIFPGSGSTYYNEKFKGKATLTIDKSSSTAYMLLSSLTSEDSAVYFCARSDYGSAYGYFDVWGTGTTVTVSS
VL: DIVLTQSPASLAVSLGQRATISCRASKSVSTSGYSYMHWYQQKPGQPPKLLIYLASNLESGVPARFSGSGSGTDFTLNIHPVEEEDAATYYCQHSRDLPLTFGAGTKLELK
modifications: mouse IgG2b kappa constant regions; 1864_10 VH; 1864_10 VL
For B3, in assay [11], the “binding to peptide of SEQ ID NO: 85” value was “particularly bound”. Also, in the assay with human TMPRSS2 [12], the “competition with 2228_15 antibody for binding to human TMPRSS2” value is “competed”. Further, the “binding properties to the TMPRSS family” value in assay [13] is “bound specifically only to TMPRSS2”. In the assay with human TMPRSS2 [14], the “ka” value is 563000 M⁻¹ s⁻¹ and the “kd” value is 0.002894 s⁻¹. Besides, in the assay with mouse TMPRSS2, the “cross-reactivity to mouse TMPRSS2” value was “exhibited the cross-reactivity”. Besides, in assay [15], the Cross-reactivity entry is “Mouse”.

B4: 1831_15 antibody (antibody, V domains shown)
VH: QVQLQQPGAELVKPGASVKLSCKASGYSFTTYWMHWVRQRPGQGLEWIGIIHPNSGTTNYNEKFKSKASLTVDKSSSTAYMQLSSLTSEDSAVYYCARLLWDYFDYWGQGTTLTVSS
VL: DIVMSQSPSSLAVSAGEKVTMSCKSSQSLLNSRTRKNFLAWYQQKPGQSPKLLIYWASTRESGVPDRFTGSGSGTDFTLTISSVQAEDLAVYYCKQSYNLYTFGGGTKLEIK
B4: the dissociation constant Kd in assay [5] was 0.42 nM. Besides, in assay [6], the Kd came out at 0.418 nM, the koff turned out to be 0.000236 s⁻¹ and the kon worked out at 563000 M⁻¹ s⁻¹. Also, in assay [7], the “Activity: Calu-3 Inhibiton” value turned out to be 44.8. Also, the binding result in [16] is “no binding (tested: 1 µg/mL)”.

B5: 2114_16 antibody (antibody, V domains shown)
VH: EVQLQQSGPELVKPGASVKISCKASGYTFTDYYMNWVKRRHGKSLEWIGNINPNNGGTSYNQKFKGKATLTVDKSSSTAYMELRSLTSEDSVVYYCAREGDLFPFAYWGQGTLVTVSA
VL: QAVVTQESALTTSPGETVTLTCRSSIGTVTTSNFANWVQEKPDHLFTGLIGASNNRAPGVPARFSGSLIGDKAALTITGAQTEDEAIYFCALWFSNHWVFGGGTKLTVL
notes: also called 2114 antibody
Turning to B5, the equilibrium dissociation constant (Kd) in assay [5] stood at 1 nM. In [6], the Kd worked out at 1.04 nM, the koff is 0.000591 s⁻¹ and the kon worked out at 570000 M⁻¹ s⁻¹. Also, the “Activity: Calu-3 Inhibiton” value in assay [7] is 47.6. In assay [8], the “IC90, First run; live SARS-CoV-2 infection of Calu-3 cells” value turned out to be 1.5 µg/mL and the “IC90, Second run; live SARS-CoV-2 infection of Calu-3 cells” value was 3.4 µg/mL. Moreover, the binding result in assay [16] is on record as “no binding (tested: 1 µg/mL)”.
